Source: patent US20030022261A1 (SALK INSTITUTE FOR BIOLOGICAL STUDIES, published 2003)

Biological target: T1, papain (immobilised, papain affinity chromatography) (UniProt P00784 134-345)
T1 sequence (looked up): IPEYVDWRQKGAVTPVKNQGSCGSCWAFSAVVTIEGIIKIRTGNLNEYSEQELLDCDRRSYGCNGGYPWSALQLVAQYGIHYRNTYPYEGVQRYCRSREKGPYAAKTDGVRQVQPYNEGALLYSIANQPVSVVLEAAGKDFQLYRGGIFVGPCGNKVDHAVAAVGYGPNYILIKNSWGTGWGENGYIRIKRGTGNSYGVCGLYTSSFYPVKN
Experiment: papain affinity chromatography (retention on immobilised papain during purification)

B1: glycosylated cystatin C (CCg), 21 kDa protein purified from conditioned medium of adult rat hippocampus-derived neural progenitor cells (other, UniProt P14841 21-140, looked up)
chain: GTSRPPPRLLGAPQEADASEEGVQRALDFAVSEYNKGSNDAYHSRAIQVVRARKQLVAGINYYLDVEMGRTTCTKSQTNLTNCPFHDQPHLMRKALCSFQIYSVPWKGTHTLTKSSCKNA
modifications: N-linked carbohydrate moiety of approximately 2.4 kDa (about 15 hexose residues) at the N-glycosylation site (Asn79-X-Thr); carbohydrate moiety of 0.3 kDa at the O-glycosylation site (Ser3)
notes: mature; also called glycosylated form of cystatin C; stem cell glycocystatin C
binding result: binds
